For data set [1], the system named is HeLa Kyoto. Kind of data set: solubility in G1/S (NP-40 vs SDS abundance) (log2 ratio); higher = more soluble. The settings on record: cell cycle stage: G1/S.
The subject of data set [2] is HeLa Kyoto. As to the kind of experiment: melting temperature (median over replicates), in situ; higher = more thermally stable.
Data set [3] relates to HeLa Kyoto. Kind of data set: solubility change mitosis vs G1/S (difference of NP-40 vs SDS log2 ratios) (log2 ratio difference); higher = more soluble in mitosis.
Data set [4] deals with HeLa Kyoto. Kind of data set: thermal stability score vs G1/S (z-score of summed log2 fold changes over temperatures); higher = more thermally stable than in G1/S.
Where [5] appears, read: cell cycle stage: early G1 (4.5 h after nocodazole release).

These results are taken from the supplement of paper PMC5998384.
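For melting temperature (median over replicates), in situ in this document: HeLa Kyoto cells synchronized by double thymidine or nocodazole block, proteins quantified by TMT10plex mass spectrometry, three independent biological replicates.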
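For solubility change mitosis vs G1/S (difference of NP-40 vs SDS log2 ratios) in this document: synchronized HeLa Kyoto cells (double thymidine block for G1/S, nocodazole release for mitosis), protein amounts in NP-40 versus SDS lysates quantified by mass spectrometry, three biological replicates.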
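For solubility in G1/S (NP-40 vs SDS abundance) in this document: HeLa Kyoto cells arrested at G1/S by double thymidine block, proteins quantified by TMT10plex mass spectrometry in mild NP-40 versus SDS extracts, three biological replicates.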
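For thermal stability score vs G1/S (z-score of summed log2 fold changes over temperatures) in this document: synchronized HeLa Kyoto cells, proteins quantified by TMT10plex mass spectrometry, three biological replicates, mitosis taken 0.5 h after nocodazole release, G1/S directly after double thymidine block.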

Regarding “MGEEDYYLELCERPVQFEKANPVNCVFFDEANKQVFAVRSGGATGVVVKGPDDRNPISFRMDDKGEVKCIKFSLENKILAVQRTSKTVDFCNFIPDNSQLEYTQECKTKNANILGFCWTSSTEIVFITDQGIEFYQVLPEKRSLKLLKSHNLNVNWYMYCPESAVILLSTTVLENVLQPFHFRAGTMSKLPKFEIELPAAPKSTKPSLSERDIAMATIYGQLYVLFLRHHSRTSNSTGAEVVLYHLPREGACKKMHILKLNRTGKFALNVVDNLVVVHHQDTETSVIFDIKLRGEFDGSVTFHHPVLPARSIQPYQIPITGPAAVTSQSPVPCKLYSSSWIVFQPDIIISASQGYLWNLQVKLEPIVNLLPDKGRLMDFLLQRKECKMVILSVCSQMLSESDRASLPVIATVFDKLNHEYKKYLDAEQSYAMAVEAGQSRSSPLLKRPVRTQAVLDQSDVYTHVLSAFVEKKEMPHKFVIAVLMEYIRSLNQFQIAVQHYLHELVIKTLVQHNLFYMLHQFLQYHVLSDSKPLACLLLSLESFYPPAHQLSLDMLKRLSTANDEIVEVLLSKHQVLAALRFIRGIGGHDNISARKFLDAAKQTEDNMLFYTIFRFFEQRNQRLRGSPNFTPGEHCEEHVAFFKQIFGDQALMRPTTF [C18ORF8]”, the “solubility in G1/S (log2)” value in data set [1] is -0.0478. Further, the values for the melting temperature in data set [2] (cell cycle stage: G1/S) and in data set [2] (cell cycle stage: mitosis) were 51.1 °C and 50.8 °C, respectively. Further, in data set [3], the “solubility change mitosis (log2)” value is -0.121. The thermal stability score was determined as 0.23 in data set [4] (setting [5]) and 0.326 in data set [4] (cell cycle stage: mitosis).

As to “MGEIKVSPDYNWFRGTVPLKKIIVDDDDSKIWSLYDAGPRSIRCPLIFLPPVSGTADVFFRQILALTGWGYRVIALQYPVYWDHLEFCDGFRKLLDHLQLDKVHLFGASLGGFLAQKFAEYTHKSPRVHSLILCNSFSDTSIFNQTWTANSFWLMPAFMLKKIVLGNFSSGPVDPMMADAIDFMVDRLESLGQSELASRLTLNCQNSYVEPHKIRDIPVTIMDVFDQSALSTEAKEEMYKLYPNARRAHLKTGGNFPYLCRSAEVNLYVQIHLLQFHGTKYAAIDPSMVSAEELEVQKGSLGISQEEQ [SPG21]”, in data set [1], the “solubility in G1/S (log2)” value was 0.00691. Besides, the melting temperature in data set [2] (cell cycle stage: G1/S) turned out to be 49.5 °C; in data set [2] (cell cycle stage: mitosis) it was 49 °C. Also, in data set [3], the “solubility change mitosis (log2)” value is -0.157. The thermal stability score in data set [4] (setting [5]) worked out at 0.11; in data set [4] (cell cycle stage: mitosis), 0.524.

On to “MGELPLDINIQEPRWDQSTFLGRARHFFTVTDPRNLLLSGAQLEASRNIVQNYRAGVVTPGITEDQLWRAKYVYDSAFHPDTGEKVVLIGRMSAQVPMNMTITGCMLTFYRKTPTVVFWQWVNQSFNAIVNYSNRSGDTPITVRQLGTAYVSATTGAVATALGLKSLTKHLPPLVGRFVPFAAVAAANCINIPLMRQRELQVGIPVADEAGQRLGYSVTAAKQGIFQVVISRICMAIPAMAIPPLIMDTLEKKDFLKRRPWLGAPLQVGLVGFCLVFATPLCCALFPQKSSIHISNLEPELRAQIHEQNPSVEVVYYNKGL [SFXN3]”, for which the “solubility in G1/S (log2)” value in data set [1] came to 0.286. Besides, the melting temperature in data set [2] (cell cycle stage: G1/S) turned out to be 53.6 °C; in data set [2] (cell cycle stage: mitosis), 53.5 °C. Besides, in data set [3], the “solubility change mitosis (log2)” value is -0.0789. Also, the thermal stability score in data set [4] (setting [5]) was -0.249; in data set [4] (cell cycle stage: mitosis), -0.897.

“MGETMSKRLKLHLGGEAEMEERAFVNPFPDYEAAAGALLASGAAEETGCVRPPATTDEPGLPFHQDGKIIHNFIRRIQTKIKDLLQQMEEGLKTADPHDCSAYTGWTGIALLYLQLYRVTCDQTYLLRSLDYVKRTLRNLNGRRVTFLCGDAGPLAVGAVIYHKLRSDCESQECVTKLLQLQRSVVCQESDLPDELLYGRAGYLYALLYLNTEIGPGTVCESAIKEVVNAIIESGKTLSREERKTERCPLLYQWHRKQYVGAAHGMAGIYYMLMQPAAKVDQETLTEMVKPSIDYVRHKKFRSGNYPSSLSNETDRLVHWCHGAPGVIHMLMQAYKVFKEEKYLKEAMECSDVIWQRGLLRKGYGICHGTAGNGYSFLSLYRLTQDKKYLYRACKFAEWCLDYGAHGCRIPDRPYSLFEGMAGAIHFLSDVLGPETSRFPAFELDSSKRD [LANCL2]”: the “solubility in G1/S (log2)” value in data set [1] is -0.0171. The melting temperature in data set [2] (cell cycle stage: G1/S) amounted to 57.7 °C; in data set [2] (cell cycle stage: mitosis), 55.4 °C. In addition, the “solubility change mitosis (log2)” value in data set [3] was -0.119. Also, the thermal stability score is -0.346 in data set [4] (setting [5]) and -0.592 in data set [4] (cell cycle stage: mitosis).

In the case of “MGGCTVKPQLLLLALVLHPWNPCLGADSEKPSSIPTDKLLVITVATKESDGFHRFMQSAKYFNYTVKVLGQGEEWRGGDGINSIGGGQKVRLMKEVMEHYADQDDLVVMFTECFDVIFAGGPEEVLKKFQKANHKVVFAADGILWPDKRLADKYPVVHIGKRYLNSGGFIGYAPYVNRIVQQWNLQDNDDDQLFYTKVYIDPLKREAINITLDHKCKIFQTLNGAVDEVVLKFENGKARAKNTFYETLPVAINGNGPTKILLNYFGNYVPNSWTQDNGCTLCEFDTVDLSAVDVHPNVSIGVFIEQPTPFLPRFLDILLTLDYPKEALKLFIHNKEVYHEKDIKVFFDKAKHEIKTIKIVGPEENLSQAEARNMGMDFCRQDEKCDYYFSVDADVVLTNPRTLKILIEQNRKIIAPLVTRHGKLWSNFWGALSPDGYYARSEDYVDIVQGNRVGVWNVPYMANVYLIKGKTLRSEMNERNYFVRDKLDPDMALCRNAREMGVFMYISNRHEFGRLLSTANYNTSHYNNDLWQIFENPVDWKEKYINRDYSKIFTENIVEQPCPDVFWFPIFSEKACDELVEEMEHYGKWSGGKHHDSRISGGYENVPTDDIHMKQVDLENVWLHFIREFIAPVTLKVFAGYYTKGFALLNFVVKYSPERQRSLRPHHDASTFTINIALNNVGEDFQGGGCKFLRYNCSIESPRKGWSFMHPGRLTHLHEGLPVKNGTRYIAVSFIDP [PLOD2]”, the “solubility in G1/S (log2)” value in data set [1] came to 0.13. Also, the figures for the melting temperature in data set [2] (cell cycle stage: G1/S) and in data set [2] (cell cycle stage: mitosis) were 53.9 °C and 54.6 °C, respectively. The “solubility change mitosis (log2)” value in data set [3] is -0.123. The thermal stability score in data set [4] (setting [5]) turned out to be 3.26; in data set [4] (cell cycle stage: mitosis), 4.23.
